Assay [1] deals with T1, GST-hMYH-ΔC (amino acids 1-487) (human, UniProt Q9UIF7-1 1-487).
T1 construct: cloned into pGEX-4T1; source: bacterially expressed and purified
T1 sequence (looked up): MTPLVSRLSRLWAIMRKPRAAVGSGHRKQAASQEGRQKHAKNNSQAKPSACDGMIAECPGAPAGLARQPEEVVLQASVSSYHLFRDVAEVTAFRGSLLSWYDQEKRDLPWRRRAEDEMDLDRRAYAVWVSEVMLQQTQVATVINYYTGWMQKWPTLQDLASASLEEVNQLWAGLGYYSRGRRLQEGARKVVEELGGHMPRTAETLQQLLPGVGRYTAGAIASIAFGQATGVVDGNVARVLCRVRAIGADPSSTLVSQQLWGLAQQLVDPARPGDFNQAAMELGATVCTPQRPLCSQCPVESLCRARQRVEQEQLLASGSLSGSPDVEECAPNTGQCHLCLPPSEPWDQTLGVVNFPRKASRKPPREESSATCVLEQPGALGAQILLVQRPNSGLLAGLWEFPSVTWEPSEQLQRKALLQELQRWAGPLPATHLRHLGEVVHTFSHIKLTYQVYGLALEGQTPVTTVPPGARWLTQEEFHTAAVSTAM
In words: pull-down; GST or GST-hMYH fusion on glutathione-Sepharose 4B beads, purified His-hRad9 added; 50 mM Tris-HCl pH 7.5, 150 mM NaCl, 1 mM EDTA, 0.3 mM DTT, 0.1% NP-40; 3 h at 4°C; blot with anti-GST and anti-His. The conditions noted are these: both partners purified.

For assay [2], the target named is T2, GST-hMYH (full-length, amino acids 1-547) (human, UniProt Q9UIF7-1 1-546).
T2 construct: human MutY glycosylase homolog (hMYH), NM_012222; printed as full-length, amino acids 1-547; cloned into pGEX-4T1; also called GST-tagged hMYH wild type; source: bacterially expressed and purified
T2 sequence (looked up): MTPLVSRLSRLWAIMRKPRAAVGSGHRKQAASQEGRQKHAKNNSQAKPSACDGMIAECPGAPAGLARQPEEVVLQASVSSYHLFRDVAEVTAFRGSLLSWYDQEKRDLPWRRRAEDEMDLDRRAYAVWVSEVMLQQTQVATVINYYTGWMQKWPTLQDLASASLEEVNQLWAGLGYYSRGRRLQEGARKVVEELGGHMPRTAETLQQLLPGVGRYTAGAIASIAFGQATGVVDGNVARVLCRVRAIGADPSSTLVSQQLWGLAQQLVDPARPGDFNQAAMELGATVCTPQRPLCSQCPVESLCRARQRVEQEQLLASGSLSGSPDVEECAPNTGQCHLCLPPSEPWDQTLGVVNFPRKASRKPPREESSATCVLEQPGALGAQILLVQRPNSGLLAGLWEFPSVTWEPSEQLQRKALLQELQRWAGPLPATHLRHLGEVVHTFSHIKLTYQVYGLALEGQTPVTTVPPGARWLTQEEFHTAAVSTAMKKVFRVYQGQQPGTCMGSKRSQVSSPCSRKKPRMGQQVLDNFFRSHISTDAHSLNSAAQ
Described as above. To be noted: both partners purified.

B1: His-hRad9 (natural protein, human, UniProt Q99638 1-391, looked up)
chain: MKCLVTGGNVKVLGKAVHSLSRIGDELYLEPLEDGLSLRTVNSSRSAYACFLFAPLFFQQYQAATPGQDLLRCKILMKSFLSVFRSLAMLEKTVEKCCISLNGRSSRLVVQLHCKFGVRKTHNLSFQDCESLQAVFDPASCPHMLRAPARVLGEAVLPFSPALAEVTLGIGRGRRVILRSYHEEEADSTAKAMVTEMCLGEEDFQQLQAQEGVAITFCLKEFRGLLSFAESANLNLSIHFDAPGRPAIFTIKDSLLDGHFVLATLSDTDSHSQDLGSPERHQPVPQLQAHSTPHPDDFANDDIDSYMIAMETTIGNEGSRVLPSISLSPGPQPPKSPGPHSEEEDEAEPSTVPGTPPPKKFRSLFFGSILAPVRSPQGPSPVLAEDSEGEG
notes: human Rad9 (hRad9), NM_004584; also called purified His-hRad9; His-purified hRad9 protein; source: bacterially expressed and purified
As for B1, the binding result in assay [1] and in assay [2] was “binds” in each case.

Values taken from PMC4151078, “Visualization of the physical and functional interaction between hMYH and hRad9 by Dronpa bimolecular fluorescence complementation” (BMC Molecular Biology, 2014).
